# B1: Flag-marked E8 protein (viral FLIP, ORF E8 of equine herpes virus 2, EHV-2) (other, equine herpes virus 2 (EHV-2))
# chain: DYKDDDDKMSHYSMIDTYFSLDEDETETYLYLCRDLLKNKGEFQCTRDAFKFLSDYACLSAANQMELLFRVGRLDLIRRIFGQTWTPDSCPRYYMPICSPFRCLMALVNDFLSDKEVEEMYFLCAPRLESHLEPGSKKSFLRLASLLEDLELLGGDKLTFLRHLLTTIGRADLVKNLQV
# notes: mature; also called Flag-E8; E8 FLIP
# B2: myc-marked cytoplasmic protein segment of the CD95 (Fas) death receptor (receptor, murine, UniProt P25446 187-327, looked up, not shown: small tags and cut ends)
# chain: RKYRKRKCWKRRQDDPESRTSSRETIPMNASNLSLSKYIPRIAEDMTIQEAKKFARENNIKEGKIDEIMHDSIQDTAEQKVQLLLCWYQSHGKSDAYQDLIKGLKKAECRRTLDKFQDMVQKDLGKSTPDTGNENEGQCLE
# notes: range 166-306; also called myc-CD95; my-CD95
# B3: adaptor protein FADD (human) (other, UniProt Q13158 1-208, looked up)
# chain: MDPFLVLLHSVSSSLSSSELTELKFLCLGRVGKRKLERVQSGLDLFSMLLEQNDLEPGHTELLRELLASLRRHDLLRRVDDFEAGAAAGAAPGEEDLCAAFNVICDNVGKDWRRLARQLKVSDTKIDSIEDRYPRNLTERVRESLRIWKNTEKENATVAHLVGALRSCQMNLVADLVQEVQQARDLQNRSGAMSPMSWNSDASTSEAS
# notes: also called CAP1
# Tests used:
# [1] = biological target: B3; assay: anti-Flag immune precipitation, anti-FADD Western blot, 293T cells
# [2] = biological target: T1, CD95 (APO-1/Fas) death receptor of human Raji B cells, stimulated with agonistic anti-APO-1 antibody (human, UniProt P25445 26-335); assay: anti-CD95 (APO-1) immune precipitation from Raji clones, gels
# T1 construct: whole, on cells; also called CD95 death receptor; CD95 receptor complex
# T1 sequence: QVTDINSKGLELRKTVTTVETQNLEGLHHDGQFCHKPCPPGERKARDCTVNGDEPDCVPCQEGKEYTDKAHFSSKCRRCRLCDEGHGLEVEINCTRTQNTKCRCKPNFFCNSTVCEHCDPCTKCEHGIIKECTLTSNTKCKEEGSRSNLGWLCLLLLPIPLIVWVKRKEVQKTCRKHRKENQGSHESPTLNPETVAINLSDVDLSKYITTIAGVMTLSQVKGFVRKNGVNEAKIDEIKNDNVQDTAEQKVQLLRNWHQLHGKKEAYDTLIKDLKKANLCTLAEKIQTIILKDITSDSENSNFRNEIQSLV
# [3] = biological target: T2, Flag-marked FLIPP (caspase-homologous C-terminal protein segment of human FLIPL) (human, UniProt O15519 233-480); assay: anti-Flag immune precipitation, anti-myc Western blot, co-transfected 293T cells (with FADD)
# T2 construct: also called caspase-homologous protein segment of FLIPL
# T2 sequence (O15519 other isoform, or with tags, fused parts or gaps limits assumed): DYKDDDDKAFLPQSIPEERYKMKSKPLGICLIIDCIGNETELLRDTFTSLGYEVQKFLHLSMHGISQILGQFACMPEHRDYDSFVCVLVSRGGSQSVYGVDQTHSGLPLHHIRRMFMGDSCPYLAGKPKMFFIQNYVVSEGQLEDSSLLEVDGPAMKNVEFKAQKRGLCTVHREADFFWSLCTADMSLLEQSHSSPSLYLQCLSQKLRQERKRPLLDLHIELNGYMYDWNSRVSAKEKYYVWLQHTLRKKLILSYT
# [4] = biological target: T3, Flag-marked 159L protein (viral FLIP, ORF 159L of molluscum contagiosum virus, MCV) (molluscum contagiosum virus (MCV), UniProt Q98325 1-241); assay: co-transfection in 293T cells, anti-Flag immune precipitation, anti-FADD Western blot
# T3 construct: also called Flag-159L; 159L-FLIP (MCV)
# T3 sequence: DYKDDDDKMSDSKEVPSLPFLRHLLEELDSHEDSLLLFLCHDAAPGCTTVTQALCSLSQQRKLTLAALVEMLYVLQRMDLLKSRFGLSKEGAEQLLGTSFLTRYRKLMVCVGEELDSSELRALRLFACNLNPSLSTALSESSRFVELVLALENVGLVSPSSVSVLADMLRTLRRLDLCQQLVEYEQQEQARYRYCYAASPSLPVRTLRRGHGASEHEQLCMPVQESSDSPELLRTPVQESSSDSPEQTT
# [5] = biological target: T2, Flag-marked FLIPP (caspase-homologous …); assay: anti-Flag immune precipitation, anti-FADD Western blot, co-transfected 293T cells
binder,measurement,setting,value
B1,binding result,[1],binds
same,binding result,[2],binds
B2,binding result,[3],no binding
B3,binding result,[4],binds
same,binding result,[5],no binding
